Test results: PMC3616719

Key:
Experiment in all cases: co-sedimentation
[1] = target: P0mutI (P0 with F215Q/V222Q in helix I) (Bombyx mori)
[2] = target: P0mutII (P0 with I241Q/L248Q in helix II) (Bombyx mori)
[3] = target: Bombyx mori ribosomal protein P0 (full-length) (Bombyx mori)

Work on P1–[32P]P2 heterodimer (complex) yielded a stoichiometry N (copies of P2 per 50S particle) [1] of 1.04, a stoichiometry N (copies of P2 per 50S particle) [2] of 1.14 and a stoichiometry N (copies of P2 per 50S particle) [3] of 2.22.
